Source: US20230080534A1, “SEMG2 ANTIBODY AND USE THEREOF” (SHANGHAI BIOTROY BIOTECHNIQUE CO., LTD., priority 2020, published 2023)

Assays:
[1] = molecular target: T1, binding between SEMG2 and CD27 (Homo sapiens, UniProt Q02383); assay: Antibody blocking ELISA of SEMG2 binding to CD27-Fc; conditions: antibody 10 μg/mL
T1 sequence (Q02383 24-582): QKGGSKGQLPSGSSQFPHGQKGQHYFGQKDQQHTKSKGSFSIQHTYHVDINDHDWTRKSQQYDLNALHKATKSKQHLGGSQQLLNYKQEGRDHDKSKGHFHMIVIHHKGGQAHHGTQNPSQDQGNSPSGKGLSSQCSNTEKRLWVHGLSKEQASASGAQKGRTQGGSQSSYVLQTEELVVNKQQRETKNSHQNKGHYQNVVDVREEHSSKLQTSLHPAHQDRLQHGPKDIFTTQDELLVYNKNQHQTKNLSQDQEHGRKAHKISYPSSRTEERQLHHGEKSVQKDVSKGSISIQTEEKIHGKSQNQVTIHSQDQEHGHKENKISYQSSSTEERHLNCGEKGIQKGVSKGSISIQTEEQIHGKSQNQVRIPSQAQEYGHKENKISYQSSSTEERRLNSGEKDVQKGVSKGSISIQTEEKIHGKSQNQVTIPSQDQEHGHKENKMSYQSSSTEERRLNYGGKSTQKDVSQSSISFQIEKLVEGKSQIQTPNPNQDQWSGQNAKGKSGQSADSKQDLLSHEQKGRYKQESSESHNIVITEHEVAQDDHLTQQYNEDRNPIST
Text: Because SEMG2 (497-509) sequence fragment is the key epitope of SEMG2 binding to CD27, and has a relatively short sequence, so SEMG2 (497-509) was used as an immunogen to prepare antibodies, which is theoretically easier to obtain functional antibody molecules with the function of blocking the binding between SEMG2 and CD27 than using full-length SEMG2 to prepare antibodies. For direct comparison, the differences in effective concentration of producing antibody by the two methods were verified using ELISA in the examples. Antibodies produced with SEMG2 (497-509) as immunogen and antibodies produced with full-length SEMG2 were added into the enzyme-linked immunosorbent assay (ELISA) reaction system at different concentrations (10^-2, 10^-1, 10^0, 10^1, 10^2, 10^3, 10^4 μg/mL), and the ELISA binding values were measured. The specific steps of enzyme-linked immunosorbent assay are as follows: (1) Dissolve SEMG2 protein antigen with 50 mM carbonate coating buffer (pH 9.6) to make the antigen concentration 10 μg/mL, and add into 96-well ELISA plate (purchased from Corning) at 100 μL/well, place at 4° C. overnight. (2) After discarding the coating solution on the next day, wash with PBST for three times, add 150 μL of 1% BSA to each well, and block for 2 hours at 37° C. […] (4) After washing for 5 times with PBST, add 100 of diluted HRP-labeled anti-human Fe secondary antibody, and incubate at 37° C. for 1 hour. (5) After washing with PBST for 5 times, 20 min after developing with chromogenic agent, the A450 absorption value was read using the microplate reader.
The SEMG2 (497-509) sequence was used to synthesize a polypeptide and coupled to a VLP carrier for immunization; HEK293 cells were used to express the full-length SEMG2 protein, and the purity was tested to reach 92%, and the binding activity of SEMG2 protein to CD27 was verified by ELISA. The protein and polypeptide antigens were used to immunize 10 mice respectively, and multiple immunizations were performed to enhance the effect: (1) The first immunization, 50 μg/mice of antigen, multiple subcutaneous injections together with Freund's complete adjuvant, with an interval of 3 weeks; (2) the second immunization; the same dosage and route as above, with incomplete Freund's adjuvant, and with an interval of 3 weeks; (3) the third immunization, the same dosage as above, without adjuvant, intraperitoneal injection with an interval of 3 weeks; (4) the booster immunization, the dose is 50 μg, intraperitoneal injection. 3 days after the last injection, blood was collected to measure its titer and the immune effect, and mice with higher titers were selected for hybridoma fusion screening. After subcloning, the binding of the monoclonal antibodies to the target antigens was detected by ELISA, and the function of different monoclonal antibodies in blocking the binding between SEMG2 and CD27 was measured by ELISA.
First, SEMG2(497-509) epitope-specific antibodies (for example, MM02, MM05) were compared with other epitope-specific antibodies (for example, HPA042767) for their function in blocking binding between SEMG2 and CD27 at different concentration ranges. […] The blocking function of different antibodies (irrelative mouse IgG, MM02, MM05, HPA042767) on binding between SEMG2 and CD27 was analyzed by the ELISA experiment as described in Example 11.
Further, the effects of different antibodies on the binding between SEMG2 and CD27 were compared under the condition of the same antibody concentration. In the ELISA, the same concentration (10 μg/mL) of antibody was used, and the strength of the binding between SEMG2 and CD27 was measured. […]

SEMG2(497-509) fragment = molecular target: T2, SEMG2(497-509) fragment (Homo sapiens, UniProt Q02383); assay: ELISA binding of antibodies to SEMG2(497-509) epitope
T2 construct: SEMG2(497-509) fragment and SEMG2(563-574) fragment were immobilized on the ELISA plate; made in house; host or cells: chemical synthesis
Description: Specifically, SEMG2 full-length protein (1-582), SEMG2(354-403) fragment, SEMG2(442-453) fragment, SEMG2(497-509) fragment and SEMG2(563-574) fragment were immobilized on the ELISA plate, and the same concentration of antibodies (MM02, MM05, MM07, MM08, MM13, MM14, HPA042767 and HPA042835) were added. Anti-mouse or anti-rabbit secondary antibodies were then used to detect the corresponding bound antibodies. MM02, MM05, MM07, MM08, MM13, and MM14 all bound to SEMG2(497509) epitope, HPA042767 bound to SEMG2 (354-403) epitope, and HPA042835 bound to […], while none of the antibodies bound to SEMG2 (442-453) control fragment.
Specifically, the preparation of polypeptide antigens and the screening of human natural antibody library were firstly performed. The SEMG2(497-509) polypeptide was synthesized and coupled to BSA and KLH, respectively, and screened in a fully human phage display antibody library. ELISA was used to select clones that bind to antigenic epitopes for preliminary screening. Different unique sequences were obtained after sequencing single colonies, sorted according to affinity sorting, and full-length antibodies were constructed from antigen-binding fragments (Fab) with relatively high affinity. The binding ability and blocking function tests were performed after purification, that is, the effect of the antibody on binding between SEMG2 and CD27 was determined by the ELISA experiment.

[2] = tested on: LOVO human colorectal cancer cells; assay: Tumor cell killing by activated PBMC, caspase-3/7 apoptosis; assay type: cell-based; conditions: SEMG2-positive, co-culture with activated PBMC 10:1
Description: (§1) To test the above hypothesis, the effects of different epitope-specific antibodies on tumor cell killing by activated PBMC were compared. Specifically, A375 human melanoma and LOVO human colorectal cancer cells highly expressing SEMG2 were seeded in 96-well plate. Human peripheral blood mononuclear cells (PBMC; #70025, Stem Cell) were activated with 100 ng/mL of CD3 antibody, 100 ng/mL, of CD28 antibody, and 1.0 ng/mL of IL2 (#317303; #302913; #589102, BioLegend), respectively, and co-cultured with the above tumor cells at a ratio of 10:1 in presence of fluorescent caspase-3/7 substrate (#4440, Essen Bioscience). After 1.0 hours, cells were observed under fluorescence microscope.
(§2) To verify the above hypothesis, tumor cells with high SEMG2 expression (A375, LOVO) and SEMG2-negative tumor cells (DLD1, NCM460 and NCI-H1975) were selected. Different antibodies (irrelevant mouse IgG antibodies, MM02 or MM05 antibodies) were added during the PBMC killing experiments for the tumor cells.
(§3) To verify the effect of the human antibodies on the function of activated PBMC on tumor cell killing, A375 and LOVO cells were co-cultured with activated PBMC, and H88-93, H88-96, or H88-67 antibody was added at the same time, and the apoptosis ratio of tumor cells were detected.

[3] = tested on: A375 human melanoma cells; assay: as above; assay type: cell-based; conditions: A375, SEMG2-positive, co-culture with activated PBMC 10:1
Description: as §1, §2, §3

Molecule | effect on the binding between SEMG2 and CD27 [1] | binding to SEMG2(497-509) epitope (SEMG2(497-509) fragment) | apoptosis tumor cell ratio / killing by activated PBMC [2] | apoptosis tumor cell ratio / killing by activated PBMC [3]
H88-96: fully human antibody from phage library against SEMG2(497-509), VH SEQ ID NO:54, VL SEQ ID NO:57 (antibody, V domains shown, UNSURE (1)..(124) VH; UNSURE (1)..(107) VL) VH: QVQLLESGGGLVQPGGSLRLSCSASGFTFSSYAMHWVRQAPGKGLEYVSAISSNGGSTYYADSVKGRFTISRDNSKNTLYLQMSSLRAEDTAVYYCVIEGGSTTGTTSGAFDIWGQGTMVTVSS VL: DIQMIQSPPSVSASVGDTVTIACRANQGIDSWLAWYQQKPGRAPKLLIYSASRLQSGVPSRFSGGGSGTDFALTISNLQPEDFATYYCQQALSLPITFGQGTRLEIK | inhibited the binding | bind | significantly promote the killing | significantly promote the killing
MM08: mouse monoclonal antibody against SEMG2(497-509), mIgG1 kappa, VH SEQ ID NO:38, VL SEQ ID NO:45 (antibody, V domains shown, UNSURE (1)..(120) VH; UNSURE (1)..(115) VL) VH: QVQLQQPGAELVRPGASVKLSCKSSDYTFTRYWMNWVKQRPGQGLEWIGMIDPSDSETHHNQMFKDKATLTVDKSSSTAYMQLSSLTSEDSAVYFCARYLGGKEGSFDYWGQGTTLTVSS VL: DIVLTQSPSSLAVSAGERVTMSCKSSQSLFNSRTRKNYLAWYQQKPGQSPKLLLYWASTRESGVPDRFTGSGSGTDFTLTISSVKTEDLAVYYCKQSYELPWTFGGGTKLEMKRA | significantly reduced the binding | bound | significantly increased | significantly increased
MM07: mouse monoclonal antibody against SEMG2(497-509), mIgG2b kappa, VH SEQ ID NO:37, VL SEQ ID NO:44 (antibody, V domains shown, UNSURE (1)..(134) VH; UNSURE (1)..(129) VL) VH: MDWLWTLLFLMAAAQSIQAQIQLVQSGPELKKPGETVRISCKASGYTLTTAGMQWVQKIPGKGLKWIGWINTHSGVAEFAEDFKGRFAFSLETSANTAYLQIRNLKNEDTATYFCARLGLLGYWGQGTTLTVSS VL: MVSSAQFLVFLLFWIPASRGDILLTQSPAILSVSPGERVSFSCRASQSIGTTIHWYQQRTNGSPRLLIKYASESISGIPSRFSGSGSGTDFTLSINSVESEDIADYYCQQSNSWPWTFGGGTKLEIKRA | significantly reduced the binding | bound | significantly increased | significantly increased
MM14: mouse monoclonal antibody against SEMG2(497-509), mIgG2b kappa, VH SEQ ID NO:40, VL SEQ ID NO:47 (antibody, V domains shown, UNSURE (1)..(122) VH; UNSURE (1)..(108) VL) VH: QVQLKESGPGLVAPSQSLSITCTVSGFSLTSYAVSWVRQPPGKGLEWLGIIWGDGSTNYHSALISRLSISKDNSKSQVFLKLNSLQTDDTATYYCAKQERFSDGYYDGFAYWGQGTLVTVSA VL: QIVLTQSPAIMSASPGEKVTITCSASSSVSYMHWFQQKPGTSPKLWIYSTSNLASGVPARFSGSGSGTSYSLTISRMEAEDAATYYCQQRSSYPFTFGSGTKLEIKRA | significantly reduced the binding | bound | significantly increased | significantly increased
